In patent US20200308292A1:

Tests used:
[1] = target: human insulin receptor extracellular domain (HIR ECD) (human) (UniProt P06213); test: ELISA, HIR ECD plated, biotinylated anti-human IgG detection
[2] = target: human insulin receptor extracellular domain (HIR ECD) (human) (UniProt P06213); test: ELISA, HIR ECD plated; against the HIR Ab as reference

Row | EC50 [1] [nM] | reduction in receptor binding affinity [2] [%] | Substance
1 | 4.8 | 95 | GUSB-HIR Ab fusion protein (GUSB fused to the amino terminus of the HIR Ab heavy chain) (from UniProt P08236 23-633) (antibody)
2 | 0.81 |  | HIR Ab-GUSB fusion protein (GUSB fused to the carboxyl terminus of the HIR Ab heavy chain) (from UniProt P08236 23-633) (antibody)
